Earlier results, collected in patent US20140179681A1, “METHODS AND COMPOSITIONS OF TARGETED DRUG DEVELOPMENT” (priority 2010, published 2014).

Target: T1, EGF binding site (Rattus norvegicus, UniProt G3V6K6)
T1 construct: Receptor source was rat liver membranes; tissue NovaScreen BioSciences; host or cells: rat liver membranes
Settings: radioligand of the inhibitor assays; rat liver membranes; read-out: KD (binding affinity)

- Kd: 1.04 nM
B1: [^125I]EGF: "The radioligand was [^125I]EGF ([…]) at a final ligand concentration of 0.36 nM" (protein, UniProt P01133 23-1207, looked up)
Pro-epidermal growth factor: PQHWSCPEGTLAGNGNSTCVGPAPFLIFSHGNSIFRIDTEGTNYEQLVVDAGVSVIMDFHYNEKRIYWVDLERQLLQRVFLNGSRQERVCNIEKNVSGMAINWINEEVIWSNQQEGIITVTDMKGNNSHILLSALKYPANVAVDPVERFIFWSSEVAGSLYRADLDGVGVKALLETSEKITAVSLDVLDKRLFWIQYNREGSNSLICSCDYDGGSVHISKHPTQHNLFAMSLFGDRIFYSTWKMKTIWIANKHTGKDMVRINLHSSFVPLGELKVVHPLAQPKAEDDTWEPEQKLCKLRKGNCSSTVCGQDLQSHLCMCAEGYALSRDRKYCEDVNECAFWNHGCTLGCKNTPGSYYCTCPVGFVLLPDGKRCHQLVSCPRNVSECSHDCVLTSEGPLCFCPEGSVLERDGKTCSGCSSPDNGGCSQLCVPLSPVSWECDCFPGYDLQLDEKSCAASGPQPFLLFANSQDIRHMHFDGTDYGTLLSQQMGMVYALDHDPVENKIYFAHTALKWIERANMDGSQRERLIEEGVDVPEGLAVDWIGRRFYWTDRGKSLIGRSDLNGKRSKIITKENISQPRGIAVHPMAKRLFWTDTGINPRIESSSLQGLGRLVIASSDLIWPSGITIDFLTDKLYWCDAKQSVIEMANLDGSKRRRLTQNDVGHPFAVAVFEDYVWFSDWAMPSVMRVNKRTGKDRVRLQGSMLKPSSLVVVHPLAKPGADPCLYQNGGCEHICKKRLGTAWCSCREGFMKASDGKTCLALDGHQLLAGGEVDLKNQVTPLDILSKTRVSEDNITESQHMLVAEIMVSDQDDCAPVGCSMYARCISEGEDATCQCLKGFAGDGKLCSDIDECEMGVPVCPPASSKCINTEGGYVCRCSEGYQGDGIHCLDIDECQLGEHSCGENASCTNTEGGYTCMCAGRLSEPGLICPDSTPPPHLREDDHHYSVRNSDSECPLSHDGYCLHDGVCMYIEALDKYACNCVVGYIGERCQYRDLKWWELRHAGHGQQQKVIVVAVCVVVLVMLLLLSLWGAHYYRTQKLLSKNPKNPYEESSRDVRSRRPADTEDGMSSCPQPWFVVIKEHQDLKNGGQPVAGEDGQAADGSMQPTSWRQEPQLCGMGTEQGCWIPVSSDKGSCPQVMERSFHMPSYGTQTLEGGVEKPHSLLSANPLWQQRALDPPHQMELTQ
modifications: Pro-epidermal growth factor 125I label
